# Paper PMC9482650, “Quantitative fragmentomics allow affinity mapping of interactomes” (Nature Communications, 2022)
# T1: PDZD7_3, Q9H5P4
# T1 sequence (Q9H5P4 857-944, limits assumed, looked up): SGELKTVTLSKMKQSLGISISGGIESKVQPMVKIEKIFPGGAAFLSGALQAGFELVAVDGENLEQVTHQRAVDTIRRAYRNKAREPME
# T2: SNTA1, Q13424
# T2 sequence (Q13424 82-180, limits assumed, looked up): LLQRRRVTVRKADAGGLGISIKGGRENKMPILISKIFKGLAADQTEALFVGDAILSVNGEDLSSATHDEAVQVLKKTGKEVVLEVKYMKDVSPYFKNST
# T3: DVL3, Q92997
# T3 sequence (Q92997 244-331, limits assumed, looked up): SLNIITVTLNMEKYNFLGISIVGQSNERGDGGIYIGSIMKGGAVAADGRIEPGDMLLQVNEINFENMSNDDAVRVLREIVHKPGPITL
# T4: APBA2_1, Q99767
# T4 sequence (Q99767 563-664, limits assumed, looked up): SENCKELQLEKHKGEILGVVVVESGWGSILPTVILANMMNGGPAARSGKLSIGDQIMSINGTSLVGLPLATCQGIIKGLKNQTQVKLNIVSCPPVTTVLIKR
# T5: SNTG1, Q9NSN8
# T5 sequence (Q9NSN8 52-150, limits assumed, looked up): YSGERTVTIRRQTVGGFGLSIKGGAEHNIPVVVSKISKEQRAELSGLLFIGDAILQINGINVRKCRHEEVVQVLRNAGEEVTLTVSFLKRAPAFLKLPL
# T6: NHERF3_3, Q5T2W1
# T6 sequence (Q5T2W1 238-333, limits assumed, looked up): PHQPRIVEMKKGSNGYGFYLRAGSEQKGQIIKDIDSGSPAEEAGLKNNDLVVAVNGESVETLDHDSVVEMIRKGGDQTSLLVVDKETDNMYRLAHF
# T7: PARD3B_1, Q8TEW8
# T7 sequence (Q8TEW8 196-299, limits assumed, looked up): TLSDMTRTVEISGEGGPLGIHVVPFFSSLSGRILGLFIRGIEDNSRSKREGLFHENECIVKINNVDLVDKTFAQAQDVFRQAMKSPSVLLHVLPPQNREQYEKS
# T8: HTRA3, P83110
# T8 sequence (P83110 354-453, limits assumed, looked up): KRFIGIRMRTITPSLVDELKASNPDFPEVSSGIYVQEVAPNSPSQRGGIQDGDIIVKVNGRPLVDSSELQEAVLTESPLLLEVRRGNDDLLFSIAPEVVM
# T9: TJP3_3, O95049
# T9 sequence (O95049 375-456, limits assumed, looked up): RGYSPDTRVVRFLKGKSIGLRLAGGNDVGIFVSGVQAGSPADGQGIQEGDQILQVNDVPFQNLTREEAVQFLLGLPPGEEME
# T10: APBA3_1, O96018
# T10 sequence (O96018 389-490, limits assumed, looked up): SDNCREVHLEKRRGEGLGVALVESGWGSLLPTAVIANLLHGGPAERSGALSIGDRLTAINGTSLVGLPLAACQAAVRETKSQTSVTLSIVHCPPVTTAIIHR
# T11: DFNB31_2, Q9P202
# T11 sequence (Q9P202 274-371, limits assumed, looked up): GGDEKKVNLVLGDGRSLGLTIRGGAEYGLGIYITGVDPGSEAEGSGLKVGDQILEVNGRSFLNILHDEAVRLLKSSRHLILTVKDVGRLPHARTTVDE
# T12: SIPA1L2, Q9P2F8
# T12 sequence (Q9P2F8 945-1036, limits assumed, looked up): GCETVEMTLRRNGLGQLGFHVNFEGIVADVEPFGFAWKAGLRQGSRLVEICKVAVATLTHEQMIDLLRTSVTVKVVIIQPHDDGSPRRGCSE
# Target: T1, PDZD7_3, Q9H5P4
# Test: holdup assay
# Set-up: key: below the threshold = too weak to quantify, mostly under pKd 3.1 to 4
# Conditions: plain residues with an end cap or a label only (N-terminal biotin on a linker: ado-ado)
row,Binder,pKd
1,"LKVPPEERLI [CRB2, Q5IJ48]",below the threshold
2,"ETQVTAETVI [TMEM225B, P0DP42]",5.23

# Target: T2, SNTA1, Q13424
# Test: holdup assay
# Set-up: key: below the threshold = too weak to quantify, mostly under pKd 3.1 to 4
# Conditions: plain residues with an end cap or a label only (N-terminal biotin on a linker: ado-ado)
row,Binder,pKd
1,"LKVPPEERLI [CRB2, Q5IJ48]",below the threshold
2,"ETQVTAETVI [TMEM225B, P0DP42]",4.68

# Target: SCRIB_1, Q14160
# Test: holdup assay
# Set-up: key: below the threshold = too weak to quantify, mostly under pKd 3.1 to 4
# Conditions: plain residues with an end cap or a label only (N-terminal biotin on a linker: ado-ado)
# SCRIB_1, Q14160, sequence (Q14160 718-814): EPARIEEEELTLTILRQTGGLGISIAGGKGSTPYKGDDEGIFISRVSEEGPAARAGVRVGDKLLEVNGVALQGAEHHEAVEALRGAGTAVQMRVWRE
row,Binder,pKd
1,"LKVPPEERLI [CRB2, Q5IJ48]",below the threshold
2,"ETQVTAETVI [TMEM225B, P0DP42]",4.24

# Target: PARD3_3, Q8TEW0
# Test: holdup assay
# Set-up: key: below the threshold = too weak to quantify, mostly under pKd 3.1 to 4
# Conditions: plain residues with an end cap or a label only (N-terminal biotin on a linker: ado-ado)
# PARD3_3, Q8TEW0, sequence (Q8TEW0 582-685): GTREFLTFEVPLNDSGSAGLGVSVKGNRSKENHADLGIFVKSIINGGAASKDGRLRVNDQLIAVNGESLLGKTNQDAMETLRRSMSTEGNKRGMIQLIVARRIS
row,Binder,pKd
1,"LKVPPEERLI [CRB2, Q5IJ48]",3.85
2,"ETQVTAETVI [TMEM225B, P0DP42]",4.35

# Target: ARHGEF12, Q9NZN5-2
# Test: holdup assay
# Set-up: key: below the threshold = too weak to quantify, mostly under pKd 3.1 to 4
# Conditions: plain residues with an end cap or a label only (N-terminal biotin on a linker: ado-ado)
# ARHGEF12, Q9NZN5-2, sequence (Q9NZN5 other isoform, or with tags, fused parts or gaps): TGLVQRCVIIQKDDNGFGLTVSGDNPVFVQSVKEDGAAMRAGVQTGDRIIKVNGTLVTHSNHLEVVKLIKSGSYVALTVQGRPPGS
row,Binder,pKd
1,"LKVPPEERLI [CRB2, Q5IJ48]",below the threshold
2,"ETQVTAETVI [TMEM225B, P0DP42]",3.84

# Target: TJP1_2, Q07157
# Test: holdup assay
# Set-up: key: below the threshold = too weak to quantify, mostly under pKd 3.1 to 4
# Conditions: plain residues with an end cap or a label only (N-terminal biotin on a linker: ado-ado)
# TJP1_2, Q07157, sequence (Q07157 181-274): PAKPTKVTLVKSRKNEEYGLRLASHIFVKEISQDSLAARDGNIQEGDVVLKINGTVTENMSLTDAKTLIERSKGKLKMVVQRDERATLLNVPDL
row,Binder,pKd
1,"LKVPPEERLI [CRB2, Q5IJ48]",below the threshold
2,"ETQVTAETVI [TMEM225B, P0DP42]",below the threshold

# Target: DLG2_2, Q15700
# Test: holdup assay
# Set-up: key: below the threshold = too weak to quantify, mostly under pKd 3.1 to 4
# Conditions: plain residues with an end cap or a label only (N-terminal biotin on a linker: ado-ado)
# DLG2_2, Q15700, sequence (Q15700 189-283): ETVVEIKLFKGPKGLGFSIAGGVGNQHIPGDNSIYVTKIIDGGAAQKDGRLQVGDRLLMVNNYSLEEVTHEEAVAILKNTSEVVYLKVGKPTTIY
row,Binder,pKd
1,"LKVPPEERLI [CRB2, Q5IJ48]",below the threshold
2,"ETQVTAETVI [TMEM225B, P0DP42]",4.07

# Target: CASK, O14936
# Test: holdup assay
# Set-up: key: below the threshold = too weak to quantify, mostly under pKd 3.1 to 4
# Conditions: plain residues with an end cap or a label only (N-terminal biotin on a linker: ado-ado)
# CASK, O14936, sequence (O14936 487-570): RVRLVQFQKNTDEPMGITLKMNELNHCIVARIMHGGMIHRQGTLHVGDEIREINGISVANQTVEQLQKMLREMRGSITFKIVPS
row,Binder,pKd
1,"LKVPPEERLI [CRB2, Q5IJ48]",below the threshold
2,"ETQVTAETVI [TMEM225B, P0DP42]",below the threshold

# Target: T3, DVL3, Q92997
# Test: holdup assay
# Set-up: key: below the threshold = too weak to quantify, mostly under pKd 3.1 to 4
# Conditions: plain residues with an end cap or a label only (N-terminal biotin on a linker: ado-ado)
row,Binder,pKd
1,"LKVPPEERLI [CRB2, Q5IJ48]",below the threshold
2,"ETQVTAETVI [TMEM225B, P0DP42]",below the threshold

# Target: MAGI1_2, Q96QZ7
# Test: holdup assay
# Set-up: key: below the threshold = too weak to quantify, mostly under pKd 3.1 to 4
# Conditions: plain residues with an end cap or a label only (N-terminal biotin on a linker: ado-ado)
# MAGI1_2, Q96QZ7, sequence (Q96QZ7 456-580): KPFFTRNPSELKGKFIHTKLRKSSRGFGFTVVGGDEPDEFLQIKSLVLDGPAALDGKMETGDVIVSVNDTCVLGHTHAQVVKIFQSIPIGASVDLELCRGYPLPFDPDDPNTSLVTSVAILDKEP
row,Binder,pKd
1,"LKVPPEERLI [CRB2, Q5IJ48]",below the threshold
2,"ETQVTAETVI [TMEM225B, P0DP42]",below the threshold

# Target: T4, APBA2_1, Q99767
# Test: holdup assay
# Set-up: key: below the threshold = too weak to quantify, mostly under pKd 3.1 to 4
# Conditions: plain residues with an end cap or a label only (N-terminal biotin on a linker: ado-ado)
row,Binder,pKd
1,"LKVPPEERLI [CRB2, Q5IJ48]",below the threshold
2,"ETQVTAETVI [TMEM225B, P0DP42]",below the threshold

# Target: NHERF4_2, Q86UT5
# Test: holdup assay
# Set-up: key: below the threshold = too weak to quantify, mostly under pKd 3.1 to 4
# Conditions: plain residues with an end cap or a label only (N-terminal biotin on a linker: ado-ado)
# NHERF4_2, Q86UT5, sequence (Q86UT5 220-308): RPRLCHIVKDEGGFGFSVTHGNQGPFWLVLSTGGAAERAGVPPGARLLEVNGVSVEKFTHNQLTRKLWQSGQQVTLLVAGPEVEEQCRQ
row,Binder,pKd
1,"LKVPPEERLI [CRB2, Q5IJ48]",below the threshold
2,"ETQVTAETVI [TMEM225B, P0DP42]",below the threshold

# Target: T5, SNTG1, Q9NSN8
# Test: holdup assay
# Set-up: key: below the threshold = too weak to quantify, mostly under pKd 3.1 to 4
# Conditions: plain residues with an end cap or a label only (N-terminal biotin on a linker: ado-ado)
row,Binder,pKd
1,"LKVPPEERLI [CRB2, Q5IJ48]",below the threshold
2,"ETQVTAETVI [TMEM225B, P0DP42]",3.9

# Target: T6, NHERF3_3, Q5T2W1
# Test: holdup assay
# Set-up: key: below the threshold = too weak to quantify, mostly under pKd 3.1 to 4
# Conditions: plain residues with an end cap or a label only (N-terminal biotin on a linker: ado-ado)
row,Binder,pKd
1,"LKVPPEERLI [CRB2, Q5IJ48]",below the threshold
2,"ETQVTAETVI [TMEM225B, P0DP42]",below the threshold

# Target: T7, PARD3B_1, Q8TEW8
# Test: holdup assay
# Set-up: key: below the threshold = too weak to quantify, mostly under pKd 3.1 to 4
# Conditions: plain residues with an end cap or a label only (N-terminal biotin on a linker: ado-ado)
row,Binder,pKd
1,"LKVPPEERLI [CRB2, Q5IJ48]",3.88
2,"ETQVTAETVI [TMEM225B, P0DP42]",4.18

# Target: LIMK2, P53671
# Test: holdup assay
# Set-up: key: below the threshold = too weak to quantify, mostly under pKd 3.1 to 4
# Conditions: plain residues with an end cap or a label only (N-terminal biotin on a linker: ado-ado)
# LIMK2, P53671, sequence (P53671 143-248): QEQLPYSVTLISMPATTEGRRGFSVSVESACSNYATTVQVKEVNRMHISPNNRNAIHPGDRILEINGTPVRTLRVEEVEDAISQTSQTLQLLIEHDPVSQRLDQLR
row,Binder,pKd
1,"LKVPPEERLI [CRB2, Q5IJ48]",below the threshold
2,"ETQVTAETVI [TMEM225B, P0DP42]",below the threshold

# Target: T8, HTRA3, P83110
# Test: holdup assay
# Set-up: key: below the threshold = too weak to quantify, mostly under pKd 3.1 to 4
# Conditions: plain residues with an end cap or a label only (N-terminal biotin on a linker: ado-ado)
row,Binder,pKd
1,"LKVPPEERLI [CRB2, Q5IJ48]",below the threshold
2,"ETQVTAETVI [TMEM225B, P0DP42]",below the threshold

# Target: T9, TJP3_3, O95049
# Test: holdup assay
# Set-up: key: below the threshold = too weak to quantify, mostly under pKd 3.1 to 4
# Conditions: plain residues with an end cap or a label only (N-terminal biotin on a linker: ado-ado)
row,Binder,pKd
1,"LKVPPEERLI [CRB2, Q5IJ48]",below the threshold
2,"ETQVTAETVI [TMEM225B, P0DP42]",below the threshold

# Target: T10, APBA3_1, O96018
# Test: holdup assay
# Set-up: key: below the threshold = too weak to quantify, mostly under pKd 3.1 to 4
# Conditions: plain residues with an end cap or a label only (N-terminal biotin on a linker: ado-ado)
row,Binder,pKd
1,"LKVPPEERLI [CRB2, Q5IJ48]",below the threshold
2,"ETQVTAETVI [TMEM225B, P0DP42]",below the threshold

# Target: T11, DFNB31_2, Q9P202
# Test: holdup assay
# Set-up: key: below the threshold = too weak to quantify, mostly under pKd 3.1 to 4
# Conditions: plain residues with an end cap or a label only (N-terminal biotin on a linker: ado-ado)
row,Binder,pKd
1,"LKVPPEERLI [CRB2, Q5IJ48]",below the threshold
2,"ETQVTAETVI [TMEM225B, P0DP42]",below the threshold

# Target: GRIP2_3, Q9C0E4
# Test: holdup assay
# Set-up: key: below the threshold = too weak to quantify, mostly under pKd 3.1 to 4
# Conditions: plain residues with an end cap or a label only (N-terminal biotin on a linker: ado-ado)
# GRIP2_3, Q9C0E4, sequence (Q9C0E4 238-339): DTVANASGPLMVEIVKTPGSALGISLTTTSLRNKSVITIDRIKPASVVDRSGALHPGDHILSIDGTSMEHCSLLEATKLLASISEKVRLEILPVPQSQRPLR
row,Binder,pKd
1,"LKVPPEERLI [CRB2, Q5IJ48]",below the threshold
2,"ETQVTAETVI [TMEM225B, P0DP42]",below the threshold

# Target: GORASP1, Q9BQQ3
# Test: holdup assay
# Set-up: key: below the threshold = too weak to quantify, mostly under pKd 3.1 to 4
# Conditions: plain residues with an end cap or a label only (N-terminal biotin on a linker: ado-ado)
# GORASP1, Q9BQQ3, sequence (Q9BQQ3 1-208): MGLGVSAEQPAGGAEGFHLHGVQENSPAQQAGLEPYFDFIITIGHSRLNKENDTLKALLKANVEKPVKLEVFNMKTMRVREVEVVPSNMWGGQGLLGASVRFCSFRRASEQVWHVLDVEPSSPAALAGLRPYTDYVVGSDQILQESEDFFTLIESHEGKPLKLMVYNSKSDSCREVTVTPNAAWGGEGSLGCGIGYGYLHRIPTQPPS
row,Binder,pKd
1,"LKVPPEERLI [CRB2, Q5IJ48]",below the threshold
2,"ETQVTAETVI [TMEM225B, P0DP42]",3.67

# Target: GRIP2_7, Q9C0E4
# Test: holdup assay
# Set-up: key: below the threshold = too weak to quantify, mostly under pKd 3.1 to 4
# Conditions: plain residues with an end cap or a label only (N-terminal biotin on a linker: ado-ado)
# GRIP2_7, Q9C0E4, sequence (Q9C0E4 934-1023): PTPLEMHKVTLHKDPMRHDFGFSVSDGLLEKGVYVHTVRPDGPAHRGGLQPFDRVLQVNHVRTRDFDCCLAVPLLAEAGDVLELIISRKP
row,Binder,pKd
1,"LKVPPEERLI [CRB2, Q5IJ48]",below the threshold
2,"ETQVTAETVI [TMEM225B, P0DP42]",below the threshold

# Target: SCRIB_3, Q14160
# Test: holdup assay
# Set-up: key: below the threshold = too weak to quantify, mostly under pKd 3.1 to 4
# Conditions: plain residues with an end cap or a label only (N-terminal biotin on a linker: ado-ado)
# SCRIB_3, Q14160, sequence (Q14160 999-1103): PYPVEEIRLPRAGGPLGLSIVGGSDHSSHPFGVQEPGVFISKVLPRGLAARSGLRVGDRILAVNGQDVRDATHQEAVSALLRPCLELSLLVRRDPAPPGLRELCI
row,Binder,pKd
1,"LKVPPEERLI [CRB2, Q5IJ48]",3.75
2,"ETQVTAETVI [TMEM225B, P0DP42]",4.34

# Target: TJP2_1, Q9UDY2
# Test: holdup assay
# Set-up: key: below the threshold = too weak to quantify, mostly under pKd 3.1 to 4
# Conditions: plain residues with an end cap or a label only (N-terminal biotin on a linker: ado-ado)
# TJP2_1, Q9UDY2, sequence (Q9UDY2 24-128): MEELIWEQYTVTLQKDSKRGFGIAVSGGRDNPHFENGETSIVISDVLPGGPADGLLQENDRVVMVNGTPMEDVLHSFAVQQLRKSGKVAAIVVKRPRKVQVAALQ
row,Binder,pKd
1,"LKVPPEERLI [CRB2, Q5IJ48]",below the threshold
2,"ETQVTAETVI [TMEM225B, P0DP42]",below the threshold

# Target: T12, SIPA1L2, Q9P2F8
# Test: holdup assay
# Set-up: key: below the threshold = too weak to quantify, mostly under pKd 3.1 to 4
# Conditions: plain residues with an end cap or a label only (N-terminal biotin on a linker: ado-ado)
row,Binder,pKd
1,"LKVPPEERLI [CRB2, Q5IJ48]",below the threshold
2,"ETQVTAETVI [TMEM225B, P0DP42]",below the threshold
